In patent publication US20240174744A1 (SCIRHOM, published 2024):

T1: hiR1-FL-WT-T7 (human iRhom1 full length wild type C-terminally tagged with 3 consecutive copies of the T7 … (human, UniProt Q96CC6 1-855))
T1 construct: also called human iRhom1 variant expressed by MEF-DKO-hiR1-FL-WT-T7 cells
T1 sequence: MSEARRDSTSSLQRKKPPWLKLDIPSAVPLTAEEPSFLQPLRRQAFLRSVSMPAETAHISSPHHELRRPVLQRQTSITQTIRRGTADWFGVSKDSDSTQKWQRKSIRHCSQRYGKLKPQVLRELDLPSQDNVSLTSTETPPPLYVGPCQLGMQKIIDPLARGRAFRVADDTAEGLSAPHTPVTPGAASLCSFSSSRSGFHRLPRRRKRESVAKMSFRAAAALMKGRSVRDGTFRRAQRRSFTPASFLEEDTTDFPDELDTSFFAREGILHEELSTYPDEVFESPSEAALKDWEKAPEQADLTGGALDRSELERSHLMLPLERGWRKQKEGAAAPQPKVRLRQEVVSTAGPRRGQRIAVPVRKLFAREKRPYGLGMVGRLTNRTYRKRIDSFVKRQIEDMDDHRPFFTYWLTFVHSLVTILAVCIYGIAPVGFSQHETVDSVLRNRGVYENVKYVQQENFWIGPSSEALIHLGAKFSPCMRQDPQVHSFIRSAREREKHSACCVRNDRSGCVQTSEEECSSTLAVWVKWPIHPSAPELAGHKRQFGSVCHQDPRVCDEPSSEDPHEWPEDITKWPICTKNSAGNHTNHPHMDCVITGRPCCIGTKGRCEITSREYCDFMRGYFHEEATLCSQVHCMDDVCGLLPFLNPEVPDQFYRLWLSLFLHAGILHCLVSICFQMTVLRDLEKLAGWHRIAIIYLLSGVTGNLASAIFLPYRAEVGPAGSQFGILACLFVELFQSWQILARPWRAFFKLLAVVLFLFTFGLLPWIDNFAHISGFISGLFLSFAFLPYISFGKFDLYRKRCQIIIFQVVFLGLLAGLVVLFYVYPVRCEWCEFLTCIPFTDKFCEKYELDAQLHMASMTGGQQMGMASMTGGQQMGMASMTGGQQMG

T2: miR2-FL-WT-FLAG (mouse iRhom2 full length wild type C-terminally tagged with the triple-FLAG epitope) (mouse, UniProt Q80WQ6 1-827)
T2 construct: also called expressed by MEF-DKO-miR2-FL-WT-FLAG cells
T2 sequence: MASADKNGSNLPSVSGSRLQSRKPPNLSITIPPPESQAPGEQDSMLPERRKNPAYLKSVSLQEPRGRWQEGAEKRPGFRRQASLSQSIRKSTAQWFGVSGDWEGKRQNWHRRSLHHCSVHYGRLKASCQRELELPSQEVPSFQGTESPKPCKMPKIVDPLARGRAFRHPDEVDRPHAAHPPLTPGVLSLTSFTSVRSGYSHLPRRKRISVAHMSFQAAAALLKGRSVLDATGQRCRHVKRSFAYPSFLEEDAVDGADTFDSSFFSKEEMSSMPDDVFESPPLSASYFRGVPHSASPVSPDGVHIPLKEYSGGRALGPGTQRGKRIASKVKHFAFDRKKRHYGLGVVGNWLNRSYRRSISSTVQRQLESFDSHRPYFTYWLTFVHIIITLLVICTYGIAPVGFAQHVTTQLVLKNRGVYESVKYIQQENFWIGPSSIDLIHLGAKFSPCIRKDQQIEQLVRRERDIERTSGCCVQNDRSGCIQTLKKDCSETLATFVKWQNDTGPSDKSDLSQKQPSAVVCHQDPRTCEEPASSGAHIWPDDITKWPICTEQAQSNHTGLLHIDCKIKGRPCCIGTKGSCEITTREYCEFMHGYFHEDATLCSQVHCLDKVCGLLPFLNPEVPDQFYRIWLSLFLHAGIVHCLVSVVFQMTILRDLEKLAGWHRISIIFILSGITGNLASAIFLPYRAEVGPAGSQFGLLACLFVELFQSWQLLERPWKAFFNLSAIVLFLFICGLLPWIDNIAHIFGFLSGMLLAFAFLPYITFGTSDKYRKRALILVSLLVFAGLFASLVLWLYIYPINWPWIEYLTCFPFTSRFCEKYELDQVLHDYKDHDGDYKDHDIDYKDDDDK

B1: antibody 3 (antibody, V domains shown)
VH: QVTLKESGPGILQPSQTLSLTCSFSGFSLTTFAMGIGWVRQPSGKGLEWLAHIWWDGEKYNNPVLKSRLTISKDTSKNQVFLRIANVDTPDTATYYCARISSIYYIIDNWGQGTSVTVSS
VL: DIVLTQSPATLSVTPGHSVSLSCRASQSISNNLHWYQKKSHESPRLLIKYVSQSISGIPSRFSGSGSGTDFTLSINSVETEDFGMYFCQQSYNWPLTFGAGTKLELK
notes: Mouse IgG, kappa light chain; also called clone #3; purified antibody 3
B2: antibody 48 (antibody, V domains shown)
VH: QVQLQQSGTELVRPGTSVKVSCKASGYAFTNYLIEWVKQRPGQGLEWIGVINPGSGFTKYNEKFKGKATLTADKSSSTVYMHLSSLTSEDSAVYFCARGLYRAMDYWGQGTSVTVSS
VL: DIQMTQSPASQSASLGESVTITCLASQTIATWLAWYQQKPGKSPQLLIYGATTLADGVPSRFSGGGSGTKFSFKISSLQAEDFVSYYCQQLYSTPYTFGGGTKLEIK
notes: Mouse IgG, kappa light chain; also called clone #48; purified antibody 48

Columns and labels:
[1] = target: T1, hiR1-FL-WT-T7 (human iRhom1 full length …); test: FACS on MEF-DKO-hiR1-FL-WT-T7 cells
[2] = target: T2, miR2-FL-WT-FLAG (mouse iRhom2 full …); test: FACS on MEF-DKO-miR2-FL-WT-FLAG cells
[3] = target: T1, hiR1-FL-WT-T7 (human iRhom1 full length …); test: FACS, MEF-DKO-hiR1-FL-WT-T7 cells

Binder	binding result [1]	binding result [2]	binding result [3]
B1	no binding (tested: 3 µg/ml)	no binding (tested: 3 µg/ml)	
B2			no binding (tested: 3 µg/ml)
